Data as given in patent publication US9708383 (Novo Nordisk, dated 2017).
*1 amine or outer side, *2 acyl side, *3 side chain or, on linkers, in order; H or OH if unused. Where no end group is shown, it is not given here. Side-chain parts run from the residue outwards. [ ]: non-standard residue; d: D form. The star is where a group is joined. 8‑(4-carboxyphenoxy)octanoyl = O=C(O)c1ccc(OCCCCCCCC(=O)*)cc1; Decanoyl(10-(4-HOOC-PhO)) = O=C(O)c1ccc(OCCCCCCCCCC(=O)*)cc1; γGlu = O=C(O)[C@H](CCC(=O)[*:2])N[*:1]; C12 diacid = O=C(O)CCCCCCCCCCC(=O)*; 13‑carboxytridecanoyl = C14 diacid; AEEA = NCCOCCOCC(=O)O; Aib = CC(C)(N)C(=O)O

What was measured:
human GLP-1 receptor [1] = target: T1, human GLP-1 receptor (human, UniProt P43220 24-463); test: SPA, displacement of 125I-GLP-1(7-36)NH2, 0.005% HSA
T1 construct: whole, on cells; Used as purified membranes of the transfected hamster cells, not whole cells; also called hGLP-1
Procedure: (§1) A shift in the binding affinity, $IC50$, is an indication that the derivative in question binds to albumin, and thereby a prediction of a potential protracted pharmacokinetic profile of the derivative in question in animal models.
(§2) 25 ul (microliter) of test compounds are added to Optiplate. HSA ("high albumin" experiment containing 2% HSA), or buffer ("low albumin" experiment containing 0.005% HSA), was added (50 ul). 5-10 µg protein/sample was added (50 ul) corresponding to 0.1-0.2 mg protein/ml (to be preferably optimised for each membrane preparation). SPA-particles (Wheatgerm agglutinin SPA beads, Perkin Elmer, #RPNQ0001) were added in an amount of 0.5 mg/well (50 ul). […] The plates were sealed with PlateSealer and incubated for 120 minutes at 30° C. while shaking. The plates were centrifuged (1500 rpm, 10 min) and counted in Topcounter.

human GLP-1 receptor [2] = target: T1, human GLP-1 receptor; test: SPA, 2.0% vs 0.005% HSA
Procedure: as §1, §2

| Binder | IC50 (human GLP-1 receptor [1]) [nM] | ratio IC50 high HSA/IC50 low HSA (human GLP-1 receptor [2]) |
| --- | --- | --- |
| HAEGTFTSDVSK([AEEA-AEEA-γGlu-13‑carboxytridecanoyl])YLEEQAAREFIAK([AEEA-AEEA-γGlu-13‑carboxytridecanoyl])LVRGRG [GLP-1 derivative of Example 78: [Lys18,Glu22,Arg26,Lys31,Arg34]-GLP-1-(7-37)-peptide] | < 1000 | > 1 |
| HAEGTFTSDVSK([AEEA-AEEA-γGlu-13‑carboxytridecanoyl])YLEEQAAHK([AEEA-AEEA-γGlu-13‑carboxytridecanoyl])FIAWLVRGRG [GLP-1 derivative of Example 60: [Lys18,Glu22,His26,Lys27,Arg34]-GLP-1-(7-37)-peptide] | < 1000 | > 1 |
| HAEGTFTSDVSK([AEEA-AEEA-γGlu-13‑carboxytridecanoyl])YLEEQAAHK([AEEA-AEEA-γGlu-13‑carboxytridecanoyl])FIAWLVQGRG [GLP-1 derivative of Example 61: [Lys18,Glu22,His26,Lys27,Gln34]-GLP-1-(7-37)-peptide] | < 1000 | > 1 |
| HAEGTFTSDVSK([AEEA-AEEA-γGlu-C12 diacid])YLEEQAAK([AEEA-AEEA-γGlu-C12 diacid])EFIAWLVQGRG [GLP-1 derivative of Example 40: [Lys18,Glu22,Gln34]-GLP-1-(7-37)-peptide] | < 1000 | > 1 |
| HAEGTFTSDVSK([AEEA-AEEA-γGlu-Decanoyl(10-(4-HOOC-PhO))])YLEGQAAHK([AEEA-AEEA-γGlu-Decanoyl(10-(4-HOOC-PhO))])FIAWLVQGRG [GLP-1 derivative of Example 67: [Lys18,His26,Lys27,Gln34]-GLP-1-(7-37)-peptide] | < 1000 | > 1 |
| HAEGTFTSDVSK([γGlu-AEEA-AEEA-13‑carboxytridecanoyl])YLEEQAVREFIAK([γGlu-AEEA-AEEA-13‑carboxytridecanoyl])LVQGRG [GLP-1 derivative of Example 56: [Lys18,Glu22,Val25,Arg26,Lys31,Gln34]-GLP-1-(7-37)-peptide] | < 1000 | > 1 |
| HAEGTFTSDVSK([AEEA-AEEA-γGlu-13‑carboxytridecanoyl])YLEEEAVRK([AEEA-AEEA-γGlu-13‑carboxytridecanoyl])FIAWLVRGRG [GLP-1 derivative of Example 57: [Lys18,Glu22,Glu23,Val25,Arg26,Lys27,Arg34]-GLP-1-(7-37)-peptide] | < 1000 | > 1 |
| HAEGTFTSDVSK([AEEA-AEEA-γGlu-13‑carboxytridecanoyl])YLEEQAVRK([AEEA-AEEA-γGlu-13‑carboxytridecanoyl])FIAWLVRGRG [GLP-1 derivative of Example 46: [Lys18,Glu22,Val25,Arg26,Lys27,Arg34]-GLP-1-(7-37)-peptide] | < 1000 | > 1 |
| HAEGTFTSDVSK([AEEA-AEEA-γGlu-13‑carboxytridecanoyl])YLEGQAVREFIAK([AEEA-AEEA-γGlu-13‑carboxytridecanoyl])LVRGRG [GLP-1 derivative of Example 77: [Lys18,Val25,Arg26,Lys31,Arg34]-GLP-1-(7-37)-peptide] | < 1000 | > 1 |
| HAEGTFTSDVSK([AEEA-AEEA-γGlu-13‑carboxytridecanoyl])YLEGQAAREFIAK([AEEA-AEEA-γGlu-13‑carboxytridecanoyl])LVRGRG [GLP-1 derivative of Example 70: [Lys18,Arg26,Lys31,Arg34]-GLP-1-(7-37)-peptide] | < 1000 | > 1 |
| HAEGTFTSDVSK([AEEA-AEEA-γGlu-13‑carboxytridecanoyl])YLEEQAVRK([AEEA-AEEA-γGlu-13‑carboxytridecanoyl])FIAWLVQGRG [GLP-1 derivative of Example 48: [Lys18,Glu22,Val25,Arg26,Lys27,Gln34]-GLP-1-(7-37)-peptide] | < 1000 | > 1 |
| HAEGTFTSDVSK([AEEA-AEEA-γGlu-13‑carboxytridecanoyl])YLEEEAVRK([AEEA-AEEA-γGlu-13‑carboxytridecanoyl])FIAWLVQGRG [GLP-1 derivative of Example 58: [Lys18,Glu22,Glu23,Val25,Arg26,Lys27,Gln34]-GLP-1-(7-37)-peptide] | < 1000 | > 1 |
| HAEGTFTSDVSK([AEEA-AEEA-γGlu-γGlu-γGlu-13‑carboxytridecanoyl])YLEGQAAREFIAK([AEEA-AEEA-γGlu-γGlu-γGlu-13‑carboxytridecanoyl])LVRGRG [GLP-1 derivative of Example 91: [Lys18,Arg26,Lys31,Arg34]-GLP-1-(7-37)-peptide] | < 1000 | > 1 |
| HAEGTFTSDVSK([AEEA-AEEA-γGlu-13‑carboxytridecanoyl])YLEGQAAHEFIAK([AEEA-AEEA-γGlu-13‑carboxytridecanoyl])LVRGRG (position 26 of the entry may not be His) [GLP-1 derivative of Example 72: [Lys18,His26,Lys31,Arg34]-GLP-1-(7-37)-peptide] | < 1000 | > 1 |
| HAEGTFTSDVSK([AEEA-AEEA-γGlu-Decanoyl(10-(4-HOOC-PhO))])YLEEQAVREFIAK([AEEA-AEEA-γGlu-Decanoyl(10-(4-HOOC-PhO))])LVRGRG [GLP-1 derivative of Example 75: [Lys18,Glu22,Val25,Arg26,Lys31,Arg34]-GLP-1-(7-37)-peptide] | < 1000 | > 1 |
| HAEGTFTSDVSK([AEEA-AEEA-γGlu-Decanoyl(10-(4-HOOC-PhO))])YLEGQAAK([AEEA-AEEA-γGlu-Decanoyl(10-(4-HOOC-PhO))])EFIAWLVQGRG [GLP-1 derivative of Example 34: [Lys18,Gln34]-GLP-1-(7-37)-peptide] | < 1000 | > 1 |
| HAEGTFTSDVSK([AEEA-AEEA-γGlu-Decanoyl(10-(4-HOOC-PhO))])YLEEQAVRK([AEEA-AEEA-γGlu-Decanoyl(10-(4-HOOC-PhO))])FIAWLVQGRG [GLP-1 derivative of Example 42: [Lys18,Glu22,Val25,Arg26,Lys27,Gln34]-GLP-1-(7-37)-peptide] | < 1000 | > 1 |
| HAEGTFTSDVSK([AEEA-AEEA-γGlu-13‑carboxytridecanoyl])YLEEQAVRKFIAHLVRGRG (Printed name omits the second acylation; printed masses fit a double-acylated compound) [GLP-1 derivative of Example 47: [Lys18,Glu22,Val25,Arg26,Lys27,His31,Arg34]-GLP-1-(7-37)-peptide] | < 1000 | > 1 |
| HAEGTFTSDVSK([AEEA-AEEA-γGlu-Decanoyl(10-(4-HOOC-PhO))])YLEEQAAK([AEEA-AEEA-γGlu-Decanoyl(10-(4-HOOC-PhO))])EFIAWLVQGRG [GLP-1 derivative of Example 38: [Lys18,Glu22,Gln34]-GLP-1-(7-37)-peptide] | < 1000 | > 1 |
| HAEGTFTSDVSK([AEEA-AEEA-γGlu-13‑carboxytridecanoyl])YLEEQAAHK([AEEA-AEEA-γGlu-13‑carboxytridecanoyl])FIAHLVRGRG [GLP-1 derivative of Example 62: [Lys18,Glu22,His26,Lys27,His31,Arg34]-GLP-1-(7-37)-peptide] | < 1000 | > 1 |
| HAEGTFTSDVSK([AEEA-AEEA-γGlu-13‑carboxytridecanoyl])YLEEQAVREFIAK([AEEA-AEEA-γGlu-13‑carboxytridecanoyl])LVRGRG [GLP-1 derivative of Example 43: [Lys18,Glu22,Val25,Arg26,Lys31,Arg34]-GLP-1-(7-37)-peptide] | < 1000 | > 1 |
| HAEGTFTSDVSK([AEEA-AEEA-γGlu-Decanoyl(10-(4-HOOC-PhO))])YLEEQAAHK([AEEA-AEEA-γGlu-Decanoyl(10-(4-HOOC-PhO))])FIAWLVQGRG [GLP-1 derivative of Example 35: [Lys18,Glu22,His26,Lys27,Gln34]-GLP-1-(7-37)-peptide] | < 1000 | > 1 |
| HAEGTFTSDVSK([AEEA-AEEA-γGlu-13‑carboxytridecanoyl])YLEEQAVREFIAK([AEEA-AEEA-γGlu-13‑carboxytridecanoyl])LVQGRG [GLP-1 derivative of Example 44: [Lys18,Glu22,Val25,Arg26,Lys31,Gln34]-GLP-1-(7-37)-peptide] | < 1000 | > 1 |
| HAEGTFTSDVSK([AEEA-AEEA-γGlu-13‑carboxytridecanoyl])YLEEQAAK([AEEA-AEEA-γGlu-13‑carboxytridecanoyl])EFIAWLVQGRG [GLP-1 derivative of Example 54: [Lys18,Glu22,Gln34]-GLP-1-(7-37)-peptide] | < 1000 | > 1 |
| HAEGTFTSDVSK([γGlu-AEEA-AEEA-13‑carboxytridecanoyl])YLEEQAVREFIAK([γGlu-AEEA-AEEA-13‑carboxytridecanoyl])LVRGRG [GLP-1 derivative of Example 55: [Lys18,Glu22,Val25,Arg26,Lys31,Arg34]-GLP-1-(7-37)-peptide] | < 1000 | > 1 |
| HAEGTFTSDVSK([AEEA-AEEA-γGlu-8‑(4-carboxyphenoxy)octanoyl])YLEEQAAK([AEEA-AEEA-γGlu-8‑(4-carboxyphenoxy)octanoyl])EFIAWLVQGRG [GLP-1 derivative of Example 89: [Lys18,Glu22,Gln34]-GLP-1-(7-37)-peptide] | < 1000 | > 1 |
| H[Aib]EGTFTSDVSK([AEEA-AEEA-γGlu-13‑carboxytridecanoyl])YLEEQAARK([AEEA-AEEA-γGlu-13‑carboxytridecanoyl])FIAHLVRG (ends and bridges not checked) [GLP-1 derivative of Example 9: [Aib8,Lys18,Glu22,Arg26,Lys27,His31,Arg34]-GLP-1-(7-35)-peptide] | < 1000 | > 1 |
